Source: article PMC5521201

Target: T1, CTCF (UniProt P49711 1-727)
T1 sequence: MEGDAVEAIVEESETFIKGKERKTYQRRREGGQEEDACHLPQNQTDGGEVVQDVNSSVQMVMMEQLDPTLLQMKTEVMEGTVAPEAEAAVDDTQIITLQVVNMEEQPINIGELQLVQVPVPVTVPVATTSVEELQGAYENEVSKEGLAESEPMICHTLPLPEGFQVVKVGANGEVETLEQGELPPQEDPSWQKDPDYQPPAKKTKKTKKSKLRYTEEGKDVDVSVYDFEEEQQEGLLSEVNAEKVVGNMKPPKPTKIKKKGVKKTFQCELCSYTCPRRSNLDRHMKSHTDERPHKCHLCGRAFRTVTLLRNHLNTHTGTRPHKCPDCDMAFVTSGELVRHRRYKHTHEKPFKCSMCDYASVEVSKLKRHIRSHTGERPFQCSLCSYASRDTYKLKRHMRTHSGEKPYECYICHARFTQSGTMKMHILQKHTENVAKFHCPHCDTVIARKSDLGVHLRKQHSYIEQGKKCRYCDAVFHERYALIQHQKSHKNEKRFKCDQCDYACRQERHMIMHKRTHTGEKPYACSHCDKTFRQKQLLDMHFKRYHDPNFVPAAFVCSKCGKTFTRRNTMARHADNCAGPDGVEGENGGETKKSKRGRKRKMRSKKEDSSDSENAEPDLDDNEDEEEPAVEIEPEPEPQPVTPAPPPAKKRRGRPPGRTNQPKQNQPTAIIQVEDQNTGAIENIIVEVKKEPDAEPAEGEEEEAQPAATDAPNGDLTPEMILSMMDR
Experiment: EMSA

B1: CTCF WT (BZLF1 promoter CTCF site) (dsDNA)
DNA 1: TCGTCCAAATGGCCACGAGGGGGCGGGTGGCTCAGGTC
DNA 2: GACCTGAGCCACCCGCCCCCTCGTGGCCATTTGGACGA
binding result: binds
